These results are taken from patent US20170267738A1 (published 2017).

Assay [1] has as its target T1, PSME2 (peptide PSME2-001) peptide on HLA-A*02:01 (human).
T1 peptide: KVLERVNAV
In words: cytokine release.

In assay [2] the target is T2, MAGEA4 (MAG-003 A6, alanine at position 6) peptide on HLA-A*02:01 (human).
T2 peptide: KVLEHAVRV
Put plainly: cytokine release.

The target in assay [3] is T3, MAGEA4 (MAG-003 A9, alanine at position 9; same residues as SEQ ID NO: 3) peptide on HLA-A*02:01 (human).
T3 peptide: KVLEHVVRA
In words: cytokine release.

Assay [4] concerns the target T4, RABGAP1L (peptide RABGAP1L-001) peptide on HLA-A*02:01 (human).
T4 peptide: FLLETVVRV
Put plainly: cytokine release.

Assay [5] concerns the target T5, CNOT1 (peptide CNOT1-003) peptide on HLA-A*02:01 (human).
T5 peptide: KVLGIVVGV
Put plainly: cytokine release.

The target of assay [6] is T6, HERC4 (peptide HERC4-001) peptide on HLA-A*02:01 (human).
T6 peptide: KVLEILHRV
In words: cytokine release.

Assay [7] has as its target T7, MIA3 (peptide MIA3-001) peptide on HLA-A*02:01 (human).
T7 peptide: KVLDKVFRA
Put plainly: cytokine release.

Assay [8] addresses T8, ANO5 (peptide ANO5-001) peptide on HLA-A*02:01 (human).
T8 peptide: IVMEHVVFL
In words: cytokine release.

In assay [9] the target is T9, AXIN1 (peptide AXIN1-001) peptide on HLA-A*02:01 (human).
T9 peptide: ILDEHVQRV
In words: cytokine release.

Assay [10] has as its target T10, MAGEA4 (MAG-003 A7, alanine at position 7) peptide on HLA-A*02:01 (human).
T10 peptide: KVLEHVARV
In words: cytokine release.

Assay [11] concerns the target T11, SYNE3 (peptide SYNE3-001) peptide on HLA-A*02:01 (human).
T11 peptide: KLLDLQVRV
Put plainly: cytokine release.

The target of assay [12] is T12, TPX2 (peptide TPX2-001) peptide on HLA-A*02:01 (human).
T12 peptide: KILEDVVGV
Put plainly: cytokine release.

Assay [13] concerns the target T13, HEATR5A (peptide HEATR5A-001) peptide on HLA-A*02:01 (human).
T13 peptide: KVLETLVTV
Put plainly: cytokine release.

Assay [14] deals with T14, MAGEA4 (peptide MAG-003) peptide on HLA-A*02:01 (human).
T14 peptide: KVLEHVVRV
In words: multimer staining.

The target in assay [15] is T15, MAGEA4 (MAG-003 A2, alanine at position 2; same residues as SEQ ID NO: 9) peptide on HLA-A*02:01 (human).
T15 peptide: KALEHVVRV
Put plainly: cytokine release.

B1: R10P2G12 (TCR, V domains shown)
Valpha: AQKVTQAQTEISVVEKEDVTLDCVYETRDTTYYLFWYKQPPSGELVFLIRRNSFDEQNEISGRYSWNFQKSTSSFNFTITASQVVDSAVYFCALSEGNSGNTPLVFGKGTRLSVIA
Vbeta: DVKVTQSSRYLVKRTGEKVFLECVQDMDHENMFWYRQDPGLGLRLIYFSYDVKMKEKGDIPEGYSVSREKKERFSLILESASTNQTSMYLCASSLSSGSHQETQYFGPGTRLLVL
With B1, the binding result in assay [1] was “no recognition”; in assay [2], “recognises”; in [3] it was “recognises”; in [4], “no recognition”; in assay [5] it was “no recognition”; in assay [6], “no recognition”. The binding result is “no recognition” in [7]; “no recognition” in assay [8]; “no recognition” in assay [9]; “recognises” in assay [10]; “no recognition” in assay [11]; “no recognition” in assay [12]. Besides, the binding result is “no recognition” in assay [13] and “recognises” in assay [14].

B2: R20P1H7 (TCR, V domains shown)
Valpha: EDQVTQSPEALRLQEGESSSLNCSYTVSGLRGLFWYRQDPGKGPEFLFTLYSAGEEKEKERLKATLTKKESFLHITAPKPEDSATYLCAVQGENSGYSTLTFGKGTMLLVSP
Vbeta: EAQVTQNPRYLITVTGKKLTVTCSQNMNHEYMSWYRQDPGLGLRQIYYSMNVEVTDKGDVPEGYKVSRKEKRNFPLILESPSPNQTSLYFCASSLGPGLAAYNEQFFGPGTRLTVL
With B2, the binding result is “no recognition” in assay [1]; “recognises” in assay [2]; “recognises” in assay [3]; “no recognition” in assay [4]; “no recognition” in assay [5]; “no recognition” in assay [6]. For the same molecule, the binding result in assay [7] is given as “no recognition”; in assay [8], “no recognition”; in [9], “no recognition”; in assay [15], “recognises”; in assay [11] it was “no recognition”; in assay [12], “no recognition”. In addition, the binding result in assay [13] is “no recognition”; in assay [14] it was “recognises”.
